Assays:
[1] = target: HCN1 (Mus musculus, UniProt O88704); test: Coexpression of HCN1 with MiRP1 or minK in Xenopus oocytes, two-microelectrode voltage clamp; details: maximal conductance
[2] = target: T1, HCN2 (Mus musculus, UniProt O88703); test: Coexpression of HCN2 with MiRP1 or minK in Xenopus oocytes, two-microelectrode voltage clamp; details: maximal conductance
T1 sequence (O88703 1-863): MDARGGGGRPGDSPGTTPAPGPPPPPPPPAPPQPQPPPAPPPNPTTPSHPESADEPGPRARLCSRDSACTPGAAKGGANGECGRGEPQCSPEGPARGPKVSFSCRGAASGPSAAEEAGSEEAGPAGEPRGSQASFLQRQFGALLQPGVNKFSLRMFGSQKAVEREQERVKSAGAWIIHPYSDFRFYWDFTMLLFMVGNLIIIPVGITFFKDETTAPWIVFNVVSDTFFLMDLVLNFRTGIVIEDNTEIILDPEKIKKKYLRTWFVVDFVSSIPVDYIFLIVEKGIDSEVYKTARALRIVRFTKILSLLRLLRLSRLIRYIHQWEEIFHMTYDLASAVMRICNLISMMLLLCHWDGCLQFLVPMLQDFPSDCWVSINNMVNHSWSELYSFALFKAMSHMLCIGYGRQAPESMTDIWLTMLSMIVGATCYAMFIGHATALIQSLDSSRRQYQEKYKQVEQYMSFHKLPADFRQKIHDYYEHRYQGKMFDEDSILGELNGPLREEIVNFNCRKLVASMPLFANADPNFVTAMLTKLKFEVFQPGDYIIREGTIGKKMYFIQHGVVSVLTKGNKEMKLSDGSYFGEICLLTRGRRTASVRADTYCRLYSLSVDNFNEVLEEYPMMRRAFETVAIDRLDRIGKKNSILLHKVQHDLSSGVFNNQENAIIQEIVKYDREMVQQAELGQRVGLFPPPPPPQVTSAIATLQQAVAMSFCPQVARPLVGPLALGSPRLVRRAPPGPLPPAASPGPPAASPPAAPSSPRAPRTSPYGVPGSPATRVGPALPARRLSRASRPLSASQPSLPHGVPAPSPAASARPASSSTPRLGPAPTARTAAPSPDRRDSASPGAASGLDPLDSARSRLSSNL

[3] = target: rat Cx43 on transfected HeLa cells (rat) (UniProt P08050)
[4] = target: rat Cx40 on transfected HeLa cells (rat) (UniProt P28234)
[5] = target: mouse Cx45 on transfected HeLa cells (mouse) (UniProt P28229)
[6] = test system: hMSCs loaded with HCN2; details: cited from earlier work
[7] = test system: native pacemaker current in sinus node; details: cited from earlier work
[8] = test system: expressed HCN2 current in a neonatal ventricular myocyte; test: Effect of threshold concentration of isoproterenol on expressed HCN2 current, two-step voltage protocol; format: cell-based, rat
Excerpt: The effect of isoproterenol is to shift the activation curve positive without increasing maximal current. This effect can be visualized by a two-step voltage protocol, with the first step to the midpoint of the activation curve and the second step to the maximum curve. FIG. 23 employs this two-step protocol to illustrate that this threshold concentration of isoproterenol shifts the activation curve of over-expressed HCN2 in a neonatal rat ventricle cell.

[9] = test system: AdHCN2 infected culture; test: Modulation of spontaneous rate by drugs in an AdHCN2 infected culture; format: cell-based, rat; details: superfusion with drug; control record of same culture 48, 54 and 96 beats/min respectively
[10] = test system: mammalian expression systems; details: cited from earlier work
[11] = test system: neonatal rat ventricular myocytes; test: Voltage clamp of HCN2 or HCN4 plasmid (lipofectin) expressed in neonatal rat ventricular myocytes; format: cell-based
Excerpt: cDNAs encoding mouse HCN2 (mHCN2, GenBank AJ225122) or HCN4 (mHCN4, GenBank deposit in progress) were subcloned into the pCI mammalian expression vector (Promega, Madison, Wis.). The resulting plasmids (pCI-mHCN2 or pCI-mHCN4) were used for neonatal rat ventricular myocyte transfection, as indicated. A separate plasmid (pEGFP-CI; Clontech, Palo Alto, Calif.) expressing the gene of enhanced green fluorescent protein (EGFP) as a visual marker for successful DNA transfer was included in all transfection experiments. For transfection, 2 μg of pCI-mHCN and […] of pEGFP-CI were first incubated in 200 μl of SFM containing 10 μl of lipofectin (Gibco Life Technologies, Rockville, Md.) at room temperature for 45 min. The mixture was then added to a 35-mm petri dish containing […] suspended in 0.8 ml of SFM. After overnight incubation at 37° C. in a CO2 incubator, the medium containing the plasmids and lipofectin was discarded and the dish was refilled with 2 ml of fresh SFM.
The whole-cell voltage clamp technique was employed to record native If or expressed IHCN2 or IHCN4. Action potentials were recorded in current clamp mode, again using a whole cell patch electrode. Experiments were carried out on cells superfused at 35° C. Extracellular solution contained (mM): NaCl, 140; NaOH, 2.3; MgCl2, 1; KCl, 5.4; CaCl2, 1.0; HEPES, 5; glucose, 10; pH 7.4. To record from myocytes expressing native currents (If), myocytes expressing HCN2 (IHCN2) or HCN4 (IHCN4), [K^+]0 was increased to 10 mM, and MnCl2 (2 mM) and BaCl2 (4 mM) added to the superfusate to eliminate calcium and inward rectifier (IK1) currents. In some experiments CsCl (4 mM) was used extracellularly to identify the pacemaker current as the Cs-sensitive current. The patch pipette solution included (mM): aspartic acid, 130; KOH, 146; NaCl, 10; CaCl2, 2; EGTA-KOH, 5; Mg-ATP, 2; HEPES-KOH, 10, pH 7.2. Where indicated, 10 μM cAMP was included in the pipette solution. A fast solution changing apparatus expedited the experimental protocols. The pipette resistance was typically 1-3 M. An Axopatch-200B amplifier and pClampS software (Axon Instruments) were used for acquisition and data analysis. […]
The activation relation of the native or expressed current can be determined from the steady-state I-V relation. In this case, the reversal potential (Vf) was separately determined from the fully activated I-V relation (Accili et al., 1991) and used to generate the activation relation (y=I/(gmax*(V−Vf)), where gmax is the maximal conductance). […] Tail currents were measured at a negative voltage (−125 mV) to avoid contamination by transient outward and other currents at less negative voltages. […]

Sequence of HCN1 (O88704 whole entry): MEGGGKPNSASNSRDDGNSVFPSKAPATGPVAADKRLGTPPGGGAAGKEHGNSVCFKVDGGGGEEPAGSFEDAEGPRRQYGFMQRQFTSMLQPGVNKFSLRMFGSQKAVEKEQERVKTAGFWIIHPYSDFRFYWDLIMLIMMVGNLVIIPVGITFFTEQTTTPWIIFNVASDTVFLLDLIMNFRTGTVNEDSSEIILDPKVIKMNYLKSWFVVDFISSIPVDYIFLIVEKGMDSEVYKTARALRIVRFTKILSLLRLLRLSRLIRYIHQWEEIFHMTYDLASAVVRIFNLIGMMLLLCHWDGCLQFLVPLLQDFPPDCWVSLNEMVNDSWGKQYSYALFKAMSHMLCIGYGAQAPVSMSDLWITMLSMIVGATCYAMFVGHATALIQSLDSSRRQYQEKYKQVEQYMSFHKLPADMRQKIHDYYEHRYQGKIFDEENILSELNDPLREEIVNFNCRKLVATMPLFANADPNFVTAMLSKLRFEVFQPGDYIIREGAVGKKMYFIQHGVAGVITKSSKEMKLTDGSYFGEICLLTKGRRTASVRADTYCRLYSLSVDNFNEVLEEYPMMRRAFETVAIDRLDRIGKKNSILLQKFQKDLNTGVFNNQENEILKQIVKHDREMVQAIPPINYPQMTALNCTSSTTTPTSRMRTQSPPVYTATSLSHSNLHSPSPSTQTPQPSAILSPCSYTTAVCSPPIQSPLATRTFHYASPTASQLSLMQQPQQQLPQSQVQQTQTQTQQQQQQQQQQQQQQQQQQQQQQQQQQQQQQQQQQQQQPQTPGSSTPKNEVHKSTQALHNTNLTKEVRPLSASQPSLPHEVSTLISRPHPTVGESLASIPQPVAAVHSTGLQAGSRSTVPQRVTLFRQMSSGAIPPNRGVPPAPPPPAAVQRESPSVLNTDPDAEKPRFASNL

Molecule: minK: rat minK, the minimal K channel protein
- enhancement of HCN1 conductance on coexpression [1]: does not enhance
- enhancement of HCN2 expression on coexpression [2]: does not enhance

Molecule: human mesenchymal stem cells (cells without a defined receptor)
- junctional conductance in cell pairs (double voltage clamp) [3]: 7.9 nS
- junctional conductance in cell pairs (double voltage clamp) [4]: 4.6 nS
- junctional conductance in cell pairs (double voltage clamp) [5]: 11 nS

Molecule: CC(C)NCC(O)c1ccc(O)c(O)c1 (stereo not drawn) [isoproterenol]
- effect on expressed current [6]: shift in activation such that increased current flowed at more positive potentials
- threshold concentration on native pacemaker current [7]: approximately 1 nM
- positive shift of activation curve [8]: approximately 5 mV
- spontaneous rate during drug exposure [9]: 63 beats/min

B1: HCN4: mouse HCN4 channel isoform (protein, UniProt O70507 1-1201, looked up)
Potassium/sodium …: MDKLPPSMRKRLYSLPQQVGAKAWIMDEEEDGEEEGAGGRQDPSRRSIRLRPLPSPSPSVAAGCSESRGAALGATESEGPGRSAGKSSTNGDCRRFRGSLASLGSRGGGSGGAGGGSSLGHLHDSAEERRLIAAEGDASPGEDRTPPGLATEPERPATAAQPAASPPPQQPPQPASASCEQPSADTAIKVEGGAAASDQILPEAEVRLGQSGFMQRQFGAMLQPGVNKFSLRMFGSQKAVEREQERVKSAGFWIIHPYSDFRFYWDLTMLLLMVGNLIIIPVGITFFKDENTTPWIVFNVVSDTFFLIDLVLNFRTGIVVEDNTEIILDPQRIKMKYLKSWFVVDFISSIPVDYIFLIVETRIDSEVYKTARALRIVRFTKILSLLRLLRLSRLIRYIHQWEEIFHMTYDLASAVVRIVNLIGMMLLLCHWDGCLQFLVPMLQDFPHDCWVSINGMVNNSWGKQYSYALFKAMSHMLCIGYGRQAPVGMSDVWLTMLSMIVGATCYAMFIGHATALIQSLDSSRRQYQEKYKQVEQYMSFHKLPPDTRQRIHDYYEHRYQGKMFDEESILGELSEPLREEIINFNCRKLVASMPLFANADPNFVTSMLTKLRFEVFQPGDYIIREGTIGKKMYFIQHGVVSVLTKGNKETKLADGSYFGEICLLTRGRRTASVRADTYCRLYSLSVDNFNEVLEEYPMMRRAFETVALDRLDRIGKKNSILLHKVQHDLNSGVFNYQENEIIQQIVRHDREMAHCAHRVQAAASATPTPTPVIWTPLIQAPLQAAAATTSVAIALTHHPRLPAAIFRPPPGPGLGNLGAGQTPRHPRRLQSLIPSALGSASPASSPSQVDTPSSSSFHIQQLAGFSAPPGLSPLLPSSSSSPPPGACGSPPAPTPSTSTAAAASTTGFGHFHKALGGSLSSSDSPLLTPLQPGARSPQAAQPPPPLPGARGGLGLLEHFLPPPPSSRSPSSSPGQLGQPPGELSLGLAAGPSSTPETPPRPERPSFMAGASGGASPVAFTPRGGLSPPGHSPGPPRTFPSAPPRASGSHGSLLLPPASSPPPPQVPQRRGTPPLTPGRLTQDLKLISASQPALPQDGAQTLRRASPHSSGESVAAFSLYPRAGGGSGSSGGLGPPGRPYGAIPGQHVTLPRKTSSGSLPPPLSLFGARAASSGGPPLTTAAPQREPGARSEPVRSKLPSNL
- midpoint of activation reported in other mammalian expression studies [10]: −80 to −109 mV
- activation kinetics compared to HCN2 ([11]; for most voltages): markedly slower
- slope factor (K) ([11]; lipofectin transfection): 6.7±0.7 mV

Source: patent publication US20070099268A1, “Chimeric HCN channels” (priority 2005, published 2007)
